Experimental data taken from patent US20150104459A1.

How the values were obtained:
Conditions in all cases: remark: other sources report otherwise
[1] = target: recombinant soluble homotrimeric HA of A/Hong Kong/2108/03 (H9N2) (Influenza A virus A/Hong Kong/2108/2003 (H9N2)); assay: HA microarray, BCC supernatant
[2] = target: recombinant soluble homotrimeric HA of A/Indonesia/5/05 (H5N1) (Influenza A virus A/Indonesia/5/2005 (H5N1)); assay: HA microarray, BCC supernatant
[3] = target: recombinant soluble homotrimeric HA of A/northern shoveler/California/HKWF115/2007 (H6N1) (Influenza A virus A/northern shoveler/California/HKWF115/2007 (H6N1)); assay: HA microarray, BCC supernatant
[4] = target: recombinant soluble homotrimeric HA of A/Japan/305/57 (H2N2) (Influenza A virus A/Japan/305/1957 (H2N2)); assay: HA microarray, BCC supernatant
[5] = target: recombinant soluble homotrimeric HA of A/chicken/Vietnam/NCVD-016/08 (H5N1) (Influenza A virus A/chicken/Vietnam/NCVD-016/2008 (H5N1)); assay: HA microarray, BCC supernatant
[6] = target: recombinant soluble homotrimeric HA of A/Egypt/3300-NAMRU3/08 (H5N1) (Influenza A virus A/Egypt/3300-NAMRU3/2008 (H5N1)); assay: HA microarray, BCC supernatant
[7] = target: recombinant soluble homotrimeric HA of A/Solomon Islands/3/06 (H1N1) (Influenza A virus A/Solomon Islands/3/2006 (H1N1)); assay: HA microarray, BCC supernatant
[8] = target: recombinant soluble homotrimeric HA of A/Vietnam/1203/04 (H5N1) (Influenza A virus A/Vietnam/1203/2004 (H5N1)); assay: HA microarray, BCC supernatant
[9] = target: recombinant soluble homotrimeric HA of A/Wisconsin/67/05 (H3N2) (Influenza A virus A/Wisconsin/67/2005 (H3N2)); assay: HA microarray, BCC supernatant
[10] = target: recombinant soluble homotrimeric HA of A/California/4/09 (H1N1) (Influenza A virus A/California/04/2009 (H1N1)); assay: HA microarray, BCC supernatant
[11] = target: recombinant soluble homotrimeric HA of A/Anhui/1/05 (H5N1) (Influenza A virus A/Anhui/1/2005 (H5N1)); assay: HA microarray, BCC supernatant
[12] = target: recombinant soluble homotrimeric HA, A/chicken/Vietnam/NCVD-016/08 (H5N1) (influenza A virus A/chicken/Vietnam/NCVD-016/2008 (H5N1)); assay: microarray, trimeric HA, transfection supernatant
[13] = target: recombinant soluble homotrimeric HA, A/Anhui/1/05 (H5N1) (influenza A virus A/Anhui/1/2005 (H5N1)); assay: microarray, trimeric HA, transfection supernatant
[14] = target: recombinant soluble homotrimeric HA, A/duck/Yangzhou/02/2005 (H8N4) (influenza A virus A/duck/Yangzhou/02/2005 (H8N4)); assay: microarray, trimeric HA, transfection supernatant
[15] = target: recombinant soluble homotrimeric HA, A/Hong Kong/156/97 (H5N1) (influenza A virus A/Hong Kong/156/97 (H5N1)); assay: microarray, trimeric HA, transfection supernatant
[16] = target: recombinant soluble homotrimeric HA, A/Netherlands/219/03 (H7N7) (influenza A virus A/Netherlands/219/03 (H7N7)); assay: microarray, trimeric HA, transfection supernatant
[17] = target: recombinant soluble homotrimeric HA, A/northern shoveler/California/HKWF115/2007 (H6N1) (influenza A virus A/northern shoveler/California/HKWF115/2007 (H6N1)); assay: microarray, trimeric HA, transfection supernatant
[18] = target: recombinant soluble homotrimeric HA of A/duck/Yangzhou/02/2005 (H8N4) (Influenza A virus A/duck/Yangzhou/02/2005 (H8N4)); assay: HA microarray, BCC supernatant
[19] = target: recombinant soluble homotrimeric HA of A/Netherlands/219/03 (H7N7) (Influenza A virus A/Netherlands/219/03 (H7N7)); assay: HA microarray, BCC supernatant
[20] = target: recombinant soluble homotrimeric HA of A/swine/Ontario/01911-2/99 (H4N6) (Influenza A virus A/Swine/Ontario/01911-2/99 (H4N6)); assay: HA microarray, BCC supernatant

B1: TCN-521 (3280_D18) (antibody, V domains shown)
VH: EVQLVQSGGGLVQPGGSLRLACVVSGFTVTSNYITWVRQAPGKGLEWVSVIYSHGRAYYSASVNGRFTISRHTSKNTVYLEMNSLRPEDTAVYYCAGGGLVGGYDEYFFDYWGQGTLATVSS
VL: ETVLTQSPGTLSLTPGERATLSCRVGQSVSGSHLAWYQQKPGQAPRLLIYGASSRATGIPDRFGGSVSGTDFTLTISRLEPEDSAVYYCQQYGDSRYTFGQGTKLEIK
With B1 the Trimeric HA Binding RLU [1] was 93 RLU, the Trimeric HA Binding RLU [2] was 31500 RLU and the Trimeric HA Binding RLU [3] was 48000 RLU. For the same binder, the Trimeric HA Binding RLU [4] was 6730 RLU, the Trimeric HA Binding RLU [5] was 32400 RLU and the Trimeric HA Binding RLU [6] was 47900 RLU. The Trimeric HA Binding RLU [7] was 39600 RLU.

B2: TCN-546 (5089_L08) (antibody, V domains shown)
VH: QVQLQQWGAGLLKPSETLSLTCGVYGGSLSDYYWSWIRQPPGKGLEWIGEINHSGGTNYNPSLKRRVTISVDTSKKQFSLKMNSVTAADTAVYYCARGTDPDTEVYCRAGNCAAFDFWGQGTLVTVSS
VL: EIVLTQSPGTLSLSPGERATLSCRASHFVIGRAVAWYQQKPGQAPRLLIYGASSRATGIPDRFSGSGSGTDFTLTISRLETEDFAVFYCQHYGSSPRYAFGQGTKLEIK
B2 showed a Trimeric HA Binding RLU [1] of 13000 RLU, a Trimeric HA Binding RLU [8] of 349 RLU and a Trimeric HA Binding RLU [2] of 18400 RLU. For the same binder, the Trimeric HA Binding RLU [9] was 30200 RLU, the Trimeric HA Binding RLU [10] was 350 RLU and the Trimeric HA Binding RLU [4] was 520 RLU. It also gave a Trimeric HA Binding RLU [5] of 421 RLU, a Trimeric HA Binding RLU [11] of 2040 RLU and a Trimeric HA Binding RLU [12] of 2940 RLU. The Trimeric HA Binding RLU [13] was 33300 RLU, the Trimeric HA Binding RLU [14] was 11400 RLU and the Trimeric HA Binding RLU [15] was 1240 RLU.

B3: TCN-558 (5248_H10b) (antibody, V domains shown)
VH: QVQLVQSGSEVKKPGTSVKVSCTASGSVFTNYGISWVRQAPGQGLEWMGGIIPLFGAAKYAQKFQGRVTITADESTKTVYMELSRLTSKDTAIYFCAKAPRVYEYYFDQWGQGTPVTVSS
VL: EIVMTQFPATLSVSPGERVTLSCRASQSVSNNLAWYQQKPGQPPRLLIYDASTRATGVPAKFSGTGSGTEFTLSISSLQSEDFAVYYCQQYHNWPPSYSFGLGTKLEIK
Binder B3 has a Trimeric HA Binding RLU [12] of 33400 RLU, a Trimeric HA Binding RLU [16] of 5840 RLU and a Trimeric HA Binding RLU [17] of 29400 RLU.

B4: TCN-527 (5086_C06) (antibody, V domains shown)
VH: QVQLQESGPGLVKPSETLSLNCAVSGGSISNYYWSWIRQPPGKGLEWIGYISYNGRPKYNPSLTSRVTISVDTSKDQFSLELRSVTAADTALYYCARETRFGELLSPYDAFEIWGQGTMVTVSS
VL: DIQMTQSPSSLSASVGDRVTMTCRASQNIRSYLNWYQQRPGTAPKLLIYAASTLHSGVPSRFSGGGSGTDFTLTINNLQPEDFASYYCQQSYDNPQTFGQGTKVEIK
B4 showed a Trimeric HA Binding RLU [1] of 16000 RLU, a Trimeric HA Binding RLU [8] of 21300 RLU and a Trimeric HA Binding RLU [2] of 23800 RLU. For the same binder, the Trimeric HA Binding RLU [3] was 30300 RLU, the Trimeric HA Binding RLU [9] was 5720 RLU and the Trimeric HA Binding RLU [10] was 28000 RLU. For the same binder, the Trimeric HA Binding RLU [18] was 28800 RLU, the Trimeric HA Binding RLU [4] was 19300 RLU and the Trimeric HA Binding RLU [5] was 27000 RLU. The Trimeric HA Binding RLU [11] was 21400 RLU, the Trimeric HA Binding RLU [7] was 16500 RLU and the Trimeric HA Binding RLU [19] was 8890 RLU. The Trimeric HA Binding RLU [20] was 7690 RLU.

B5: TCN-543 (5081_G23) (antibody, V domains shown)
VH: QVHLVQSGAEVRKPGDSVKVSCKTSGYTFSTYPVAWVRQVPGQGLEWMGWISTYNGNTNFAQNFQGRVTLTTDTTTNTAYMEVRSLKFDDTAVYYCARVEGSYRDFWNNQNRFDPWGQGTLVTVSS
VL: SYVLTQPPSVSVAPGQTARISCGGSNIGGKSVHWYQQKPGQAPVLVVYDDSGRPSGIPERFSGSNSGDTATLTISRVEAGDEADYFCQVWDNFGGVFGTGTKVTVL
B5 was tested, and the Trimeric HA Binding RLU [9] was 1360 RLU, the Trimeric HA Binding RLU [10] was 13100 RLU and the Trimeric HA Binding RLU [7] was 511 RLU. For the same binder, the Trimeric HA Binding RLU [19] was 661 RLU, the Trimeric HA Binding RLU [12] was 5880 RLU and the Trimeric HA Binding RLU [16] was 12900 RLU. For the same binder, the Trimeric HA Binding RLU [14] was 13100 RLU and the Trimeric HA Binding RLU [15] was 1430 RLU.

B6: TCN-540 (5060_F05) (antibody, V domains shown)
VH: QVQLVQSGGGVVQPGRSLRLSCAASGFTFSSYAMHWVRQAPGKGLEWVAIISYDGNDQYYTDSVKGRFTISRDSSKVYLQMHRLRPEDTAVYYCAKEFETSGYFHGSFDYWGQGILVTVSS
VL: QSALTQPASVSGSPGQSITISCTGTSSDVGGYNYVSWYQQHPGKAPKLLIYEVTNWPSGVSNRFSGSKSGNTASLTISGLQAEDEADYYCSSYAGSSTWVFGGGTRVTVL
Binder B6 has a Trimeric HA Binding RLU [1] of 22 RLU, a Trimeric HA Binding RLU [2] of 31 RLU and a Trimeric HA Binding RLU [3] of 131 RLU. For the same binder, the Trimeric HA Binding RLU [9] was 728 RLU, the Trimeric HA Binding RLU [10] was 57 RLU and the Trimeric HA Binding RLU [18] was 117 RLU. For the same binder, the Trimeric HA Binding RLU [4] was 2970 RLU, the Trimeric HA Binding RLU [5] was 70 RLU and the Trimeric HA Binding RLU [11] was 25 RLU. The Trimeric HA Binding RLU [6] was 1970 RLU, the Trimeric HA Binding RLU [7] was 64 RLU and the Trimeric HA Binding RLU [19] was 381 RLU. The Trimeric HA Binding RLU [12] was 1510 RLU, the Trimeric HA Binding RLU [13] was 2190 RLU and the Trimeric HA Binding RLU [16] was 4390 RLU. The Trimeric HA Binding RLU [17] was 2460 RLU, the Trimeric HA Binding RLU [14] was 6080 RLU and the Trimeric HA Binding RLU [15] was 1550 RLU.

B7: TCN-528 (5087_P17) (antibody, V domains shown)
VH: QVQLVQSGSEVKKPGASVKVSCKASGYTFTNYDINWIRQAPGQGLEWMGWINPNSGTTGSAQRFQGRVTITVDTSITTVYMELSSLRSDDTAIYYCARGRELLRLQHFLTDSQSERRDCFDPWGQGTLVTVSS
VL: DIQMTQSPSSLSASVGDRVTITCRANQDIGIYLNWYQQNPGKVPKLLLHGASSLQGGVPSRFSASGSGTDFTLTIHSLQPEDLATYYCQQSRRLPYTFGQGTRVELK
B7 gave a Trimeric HA Binding RLU [1] of 42000 RLU, a Trimeric HA Binding RLU [8] of 45600 RLU and a Trimeric HA Binding RLU [2] of 42800 RLU. The Trimeric HA Binding RLU [3] was 46800 RLU, the Trimeric HA Binding RLU [9] was 48800 RLU and the Trimeric HA Binding RLU [10] was 48800 RLU. The Trimeric HA Binding RLU [18] was 38400 RLU, the Trimeric HA Binding RLU [4] was 46400 RLU and the Trimeric HA Binding RLU [5] was 38200 RLU. For the same binder, the Trimeric HA Binding RLU [11] was 49800 RLU, the Trimeric HA Binding RLU [7] was 44800 RLU and the Trimeric HA Binding RLU [19] was 49300 RLU. It also gave a Trimeric HA Binding RLU [20] of 47500 RLU.

B8: TCN-557 (5081_A04) (antibody, V domains shown)
VH: QVQLVQSGAEVKKPGASVKVSCKASGHTFTGYYIHWVRQAPGQGLEWMGWINPDSGATSSAQNFQGRVTMTGDTSSSTAYMELSRLSFDDTAVYYCARVLFTSPFDFWGEGTLVTVSS
VL: QAVVTQEPSLAVSPGGTVTLTCGSSTGAVTRGHYPYWFQQKPGQAPRALIYDSAGNRHSWTPARFSGSLLGGKAALTLSGAQPEDEAEYYCLLSYSGVWVFGGGTKLTVL
Work on B8 yielded a Trimeric HA Binding RLU [1] of 35300 RLU, a Trimeric HA Binding RLU [8] of 47300 RLU and a Trimeric HA Binding RLU [2] of 45200 RLU. For the same binder, the Trimeric HA Binding RLU [3] was 24400 RLU, the Trimeric HA Binding RLU [9] was 10200 RLU and the Trimeric HA Binding RLU [10] was 17600 RLU. For the same binder, the Trimeric HA Binding RLU [18] was 50100 RLU, the Trimeric HA Binding RLU [4] was 43400 RLU and the Trimeric HA Binding RLU [5] was 45500 RLU. The Trimeric HA Binding RLU [11] was 46000 RLU, the Trimeric HA Binding RLU [7] was 40700 RLU and the Trimeric HA Binding RLU [19] was 6780 RLU. It also gave a Trimeric HA Binding RLU [20] of 27000 RLU, a Trimeric HA Binding RLU [12] of 23300 RLU and a Trimeric HA Binding RLU [13] of 20000 RLU. The Trimeric HA Binding RLU [16] was 53700 RLU, the Trimeric HA Binding RLU [17] was 49600 RLU and the Trimeric HA Binding RLU [14] was 24000 RLU. The Trimeric HA Binding RLU [15] was 27100 RLU.
